Test results taken from PMC10397247.

Legend:
Test in all cases: two-hybrid library CCNG1;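 also: natural log of median RNA to DNA barcode read ratio; higher means stronger binding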
[1] = biological target: T1, 4H1845-bH
T1 chain: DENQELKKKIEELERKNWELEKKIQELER

[2] = biological target: T2, 4H3354-bH
T2 chain: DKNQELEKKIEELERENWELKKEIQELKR

[3] = biological target: T3, 4H3112-bH
T3 chain: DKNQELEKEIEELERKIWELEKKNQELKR

[4] = biological target: T4, 4H4001-bH
T4 chain: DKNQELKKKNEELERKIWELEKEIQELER

[5] = biological target: T5, 4H953-bH
T5 chain: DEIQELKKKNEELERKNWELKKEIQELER

[6] = biological target: T6, 4H2729-bH
T6 chain: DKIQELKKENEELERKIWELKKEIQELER

[7] = biological target: T7, 4H72-bH
T7 chain: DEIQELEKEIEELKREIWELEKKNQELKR

[8] = biological target: T8, 4H4001-bN
T8 chain: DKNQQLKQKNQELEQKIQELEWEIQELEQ

[9] = biological target: T9, 4H568-bH
T9 chain: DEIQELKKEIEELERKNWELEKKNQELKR

[10] = biological target: T10, 4H754-bH
T10 chain: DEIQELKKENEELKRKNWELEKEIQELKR

[11] = biological target: T11, 4H3843-bH
T11 chain: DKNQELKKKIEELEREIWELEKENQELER

[12] = biological target: T12, 4H331-bH
T12 chain: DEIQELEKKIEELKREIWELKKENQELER

[13] = biological target: T13, 4H2442-bH
T13 chain: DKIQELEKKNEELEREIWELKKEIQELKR

[14] = biological target: T14, 4H3185-bH
T14 chain: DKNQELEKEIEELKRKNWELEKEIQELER

[15] = biological target: T15, 4H2610-bH
T15 chain: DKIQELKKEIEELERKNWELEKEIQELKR

[16] = biological target: T16, 4H3606-bH
T16 chain: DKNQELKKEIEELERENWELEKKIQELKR

[17] = biological target: T17, 4H575-bA
T17 chain: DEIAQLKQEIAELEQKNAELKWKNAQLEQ

[18] = biological target: T18, 4H2618-bH
T18 chain: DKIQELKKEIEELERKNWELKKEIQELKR

[19] = biological target: T19, O7-bN
T19 chain: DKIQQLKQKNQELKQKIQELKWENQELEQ

[20] = biological target: T20, 4H607-bH
T20 chain: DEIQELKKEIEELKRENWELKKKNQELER

[21] = biological target: T21, 4H3782-bH
T21 chain: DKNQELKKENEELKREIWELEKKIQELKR

[22] = biological target: T22, 4H462-bH
T22 chain: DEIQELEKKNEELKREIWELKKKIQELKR

[23] = biological target: T23, 4H3427-bH
T23 chain: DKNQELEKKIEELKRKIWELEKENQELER

[24] = biological target: T24, 4H370-bH
T24 chain: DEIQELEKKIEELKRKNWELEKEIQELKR

[25] = biological target: T25, 4H338-bH
T25 chain: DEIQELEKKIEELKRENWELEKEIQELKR

[26] = biological target: T26, 4H3189-bH
T26 chain: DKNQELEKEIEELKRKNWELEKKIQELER

[27] = biological target: T27, 4H717-bH
T27 chain: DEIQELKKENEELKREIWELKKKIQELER

[28] = biological target: T28, 4H918-bH
T28 chain: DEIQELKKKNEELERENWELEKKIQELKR

[29] = biological target: T29, 4H2717-bN
T29 chain: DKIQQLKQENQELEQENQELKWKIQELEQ

[30] = biological target: T30, 4H454-bH
T30 chain: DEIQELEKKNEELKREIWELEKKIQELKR

[31] = biological target: T31, 4H2576-bH
T31 chain: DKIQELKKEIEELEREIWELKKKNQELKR

[32] = biological target: T32, 4H2667-bH
T32 chain: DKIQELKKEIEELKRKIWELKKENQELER

[33] = biological target: T33, 4H797-bH
T33 chain: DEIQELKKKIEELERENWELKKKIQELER

[34] = biological target: T34, 4H687-bH
T34 chain: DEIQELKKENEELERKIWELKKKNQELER

[35] = biological target: T35, 4H918-bN
T35 chain: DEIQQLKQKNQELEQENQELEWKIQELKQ

[36] = biological target: T36, 4H3855-bH
T36 chain: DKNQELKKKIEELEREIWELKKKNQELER

[37] = biological target: T37, 4H2697-bH
T37 chain: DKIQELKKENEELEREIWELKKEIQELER

[38] = biological target: T38, 4H967-bH
T38 chain: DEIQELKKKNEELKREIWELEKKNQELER

[39] = biological target: T39, 4H883-bH
T39 chain: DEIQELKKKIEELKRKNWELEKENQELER

[40] = biological target: T40, 4H908-bH
T40 chain: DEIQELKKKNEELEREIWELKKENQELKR

[41] = biological target: T41, 4H575-bH; conditions: mean of both orientations
T41 chain: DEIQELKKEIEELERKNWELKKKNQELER

[42] = biological target: T42, 4H3907-bA
T42 chain: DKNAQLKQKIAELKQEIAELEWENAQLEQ

[43] = biological target: T43, 4H883-bA
T43 chain: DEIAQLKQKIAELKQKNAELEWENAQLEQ

[44] = biological target: T44, O5
T44 chain: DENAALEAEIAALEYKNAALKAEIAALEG

[45] = biological target: T45, O7
T45 chain: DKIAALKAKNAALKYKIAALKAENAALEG

[46] = biological target: T46, O6
T46 chain: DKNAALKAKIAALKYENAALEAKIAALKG

[47] = biological target: T47, O2
T47 chain: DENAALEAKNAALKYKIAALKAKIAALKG

[48] = biological target: T48, O15
T48 chain: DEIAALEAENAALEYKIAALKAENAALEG

[49] = biological target: T49, O13
T49 chain: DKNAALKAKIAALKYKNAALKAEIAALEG

[50] = biological target: T50, O4
T50 chain: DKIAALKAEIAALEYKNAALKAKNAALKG

[51] = biological target: T51, O3
T51 chain: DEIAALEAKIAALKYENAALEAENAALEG

[52] = biological target: T52, O16
T52 chain: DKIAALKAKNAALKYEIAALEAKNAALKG

[53] = biological target: T53, O8
T53 chain: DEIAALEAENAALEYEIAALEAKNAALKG

[54] = biological target: T54, O9
T54 chain: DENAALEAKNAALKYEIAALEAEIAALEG

[55] = biological target: T55, O12
T55 chain: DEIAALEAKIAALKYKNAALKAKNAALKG

[56] = biological target: T56, O14
T56 chain: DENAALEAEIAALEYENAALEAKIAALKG

B1: 4H1845-bH (peptide)
chain: DENQELKKKIEELERKNWELEKKIQELER
- interaction score [1]: 0.142
- interaction score [2]: 0.334
- interaction score [3]: -0.698
- interaction score [4]: -1.03
- interaction score [5]: -0.598
- interaction score [6]: 0.473
- interaction score [7]: 0.142
- interaction score [8]: -0.805
- interaction score [9]: -0.447
- interaction score [10]: 0.391
- interaction score [11]: -0.224
- interaction score [12]: -1.2
- interaction score [13]: -0.237
- interaction score [14]: 0.639
- interaction score [15]: -0.549
- interaction score [16]: 0.808
- interaction score [17]: -1.1
- interaction score [18]: -1.52
- interaction score [19]: -0.332
- interaction score [20]: -2.75
- interaction score [21]: 0.165
- interaction score [22]: -0.599
- interaction score [23]: -0.323
- interaction score [24]: -0.319
- interaction score [25]: -0.243
- interaction score [26]: 0.462
- interaction score [27]: 0.319
- interaction score [28]: -0.512
- interaction score [29]: -0.601
- interaction score [30]: -0.0899
- interaction score [31]: -1.7
- interaction score [32]: 0.349
- interaction score [33]: 0.175
- interaction score [34]: -0.46
- interaction score [35]: -1.11
- interaction score [36]: -0.295
- interaction score [37]: 0.106
- interaction score [38]: -0.511
- interaction score [39]: 0.0604
- interaction score [40]: -1

B2: 4H2442-bH (peptide)
chain: DKIQELEKKNEELEREIWELKKEIQELKR
- interaction score [2]: 0.0703
- interaction score [41]: 0.167
- interaction score [3]: -0.123
- interaction score [4]: -0.244
- interaction score [5]: 0.587
- interaction score [6]: 1.77
- interaction score [7]: -2.01
- interaction score [9]: -0.0562
- interaction score [10]: -0.751
- interaction score [12]: -0.168
- interaction score [13]: 1.25
- interaction score [14]: -0.571
- interaction score [18]: 1.93
- interaction score [21]: -0.566
- interaction score [42]: -1.28
- interaction score [23]: -0.00664
- interaction score [25]: 0.526
- interaction score [27]: 0.313
- interaction score [28]: -0.517
- interaction score [30]: 1.64
- interaction score [31]: 0.27
- interaction score [32]: -0.37
- interaction score [33]: -0.629
- interaction score [43]: -2.1
- interaction score [34]: -0.163
- interaction score [36]: -1.1
- interaction score [38]: 0.424
- interaction score [39]: 0.442
- interaction score [40]: -0.628

B3: O12 (peptide)
chain: DEIAALEAKIAALKYKNAALKAKNAALKG
- interaction score [44]: -2.03
- interaction score [45]: -2.15
- interaction score [46]: -2.27
- interaction score [47]: -2.46
- interaction score [48]: -1.36
- interaction score [49]: -2.04
- interaction score [50]: -1.08
- interaction score [51]: 0.318
- interaction score [52]: -2.57
- interaction score [53]: -1.51
- interaction score [54]: -1.67
- interaction score [55]: -2.08
- interaction score [56]: -1.45

B4: 4H967-bH (peptide)
chain: DEIQELKKKNEELKREIWELEKKNQELER
- interaction score [55]: -1.53
- interaction score [38]: -0.406
